Residue numbers refer to the chain shown, from its start. Each block holds one binder with its values, some of them ahead of it.
Columns and labels:
[1] = target: purified rhesus CD45 ectodomain (rhesus macaque); assay: BLI (Octet Red96), IgG on anti-human Fc sensor, 50 nM CD45 ectodomain, 1:1 fit
[2] = target: purified cynomolgus CD45 ectodomain (cynomolgus monkey); assay: as above
[3] = target: purified cynomolgus CD45 ectodomain (cynomolgus monkey); assay: BLI (Octet Red96), Table 11; the sentence does not name the species of CD45
[4] = target: purified cynomolgus CD45 ectodomain (cynomolgus monkey); assay: BLI (Octet Red96), antibody on anti-human Fc sensor, 300 nM cynomolgus CD45 ectodomain, 1:1 fit

Sequence of purified rhesus CD45 ectodomain (rhesus macaque) (chain, as listed by the source limits assumed, form in doubt): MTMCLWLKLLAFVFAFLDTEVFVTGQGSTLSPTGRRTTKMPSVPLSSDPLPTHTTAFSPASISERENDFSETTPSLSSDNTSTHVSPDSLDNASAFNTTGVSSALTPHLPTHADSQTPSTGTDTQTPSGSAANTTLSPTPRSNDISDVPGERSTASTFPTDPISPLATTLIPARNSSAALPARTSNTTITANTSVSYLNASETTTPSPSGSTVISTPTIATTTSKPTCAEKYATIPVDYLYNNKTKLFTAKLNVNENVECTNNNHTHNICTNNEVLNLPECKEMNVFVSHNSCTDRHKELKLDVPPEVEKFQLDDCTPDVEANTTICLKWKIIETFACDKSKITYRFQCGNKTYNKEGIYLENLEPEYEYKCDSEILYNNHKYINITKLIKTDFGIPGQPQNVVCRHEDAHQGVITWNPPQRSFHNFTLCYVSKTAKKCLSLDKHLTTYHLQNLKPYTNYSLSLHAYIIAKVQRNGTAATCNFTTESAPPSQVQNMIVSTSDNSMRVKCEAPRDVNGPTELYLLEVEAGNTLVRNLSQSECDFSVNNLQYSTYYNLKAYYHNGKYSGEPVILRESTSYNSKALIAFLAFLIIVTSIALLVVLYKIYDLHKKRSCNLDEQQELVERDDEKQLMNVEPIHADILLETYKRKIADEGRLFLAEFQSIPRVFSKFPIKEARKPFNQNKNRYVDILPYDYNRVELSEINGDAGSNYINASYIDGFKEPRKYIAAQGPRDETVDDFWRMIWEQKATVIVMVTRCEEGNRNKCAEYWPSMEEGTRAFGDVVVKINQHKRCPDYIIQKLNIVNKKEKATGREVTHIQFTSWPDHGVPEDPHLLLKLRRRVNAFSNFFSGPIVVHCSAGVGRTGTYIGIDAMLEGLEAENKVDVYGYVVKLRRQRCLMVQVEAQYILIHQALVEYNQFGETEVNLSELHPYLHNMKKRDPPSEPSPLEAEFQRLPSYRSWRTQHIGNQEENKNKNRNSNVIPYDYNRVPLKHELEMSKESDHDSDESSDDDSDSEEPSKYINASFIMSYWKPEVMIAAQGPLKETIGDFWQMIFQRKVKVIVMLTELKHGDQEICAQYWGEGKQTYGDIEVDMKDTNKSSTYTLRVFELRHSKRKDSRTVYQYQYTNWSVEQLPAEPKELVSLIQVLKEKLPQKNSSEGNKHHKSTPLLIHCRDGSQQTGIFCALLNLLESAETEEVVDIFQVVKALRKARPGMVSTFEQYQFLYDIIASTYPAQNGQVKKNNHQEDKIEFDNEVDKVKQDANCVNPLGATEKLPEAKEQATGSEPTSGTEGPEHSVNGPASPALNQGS
Sequence of purified cynomolgus CD45 ectodomain (cynomolgus monkey) (chain, as listed by the source limits assumed, form in doubt): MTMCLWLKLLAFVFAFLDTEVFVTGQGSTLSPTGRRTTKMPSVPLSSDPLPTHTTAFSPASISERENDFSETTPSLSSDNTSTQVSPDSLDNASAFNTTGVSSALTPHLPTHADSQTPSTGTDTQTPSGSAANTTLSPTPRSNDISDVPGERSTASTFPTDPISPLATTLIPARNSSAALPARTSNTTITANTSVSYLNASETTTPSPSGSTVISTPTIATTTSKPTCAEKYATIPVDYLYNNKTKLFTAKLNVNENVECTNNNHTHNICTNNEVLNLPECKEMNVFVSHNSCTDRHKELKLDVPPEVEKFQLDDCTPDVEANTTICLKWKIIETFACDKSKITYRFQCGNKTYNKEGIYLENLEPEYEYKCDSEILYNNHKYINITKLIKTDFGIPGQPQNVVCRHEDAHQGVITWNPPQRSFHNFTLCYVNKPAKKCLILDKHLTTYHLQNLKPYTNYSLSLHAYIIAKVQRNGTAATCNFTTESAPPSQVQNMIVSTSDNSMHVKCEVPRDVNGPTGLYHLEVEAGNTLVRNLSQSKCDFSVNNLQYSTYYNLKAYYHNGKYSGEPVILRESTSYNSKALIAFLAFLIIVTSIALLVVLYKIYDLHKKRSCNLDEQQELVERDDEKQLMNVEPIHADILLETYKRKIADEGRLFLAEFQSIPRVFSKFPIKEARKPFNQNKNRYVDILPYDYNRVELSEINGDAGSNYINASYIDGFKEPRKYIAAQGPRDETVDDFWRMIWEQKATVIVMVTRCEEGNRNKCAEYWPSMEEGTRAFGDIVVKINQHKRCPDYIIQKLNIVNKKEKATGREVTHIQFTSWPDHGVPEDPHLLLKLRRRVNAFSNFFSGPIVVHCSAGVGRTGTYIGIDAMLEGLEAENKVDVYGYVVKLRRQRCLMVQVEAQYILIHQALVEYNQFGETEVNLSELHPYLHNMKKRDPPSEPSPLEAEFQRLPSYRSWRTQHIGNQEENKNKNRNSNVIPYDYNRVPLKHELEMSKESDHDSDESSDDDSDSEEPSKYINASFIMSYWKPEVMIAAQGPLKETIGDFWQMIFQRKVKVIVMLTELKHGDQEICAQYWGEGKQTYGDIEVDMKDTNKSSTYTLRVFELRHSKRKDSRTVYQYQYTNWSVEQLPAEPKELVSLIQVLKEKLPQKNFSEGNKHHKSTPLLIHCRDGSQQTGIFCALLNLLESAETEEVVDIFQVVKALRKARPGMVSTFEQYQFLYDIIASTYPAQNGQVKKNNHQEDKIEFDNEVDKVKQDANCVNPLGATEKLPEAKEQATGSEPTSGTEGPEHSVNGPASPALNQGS

B1: Antibody 2 (Ab2) (antibody, V domains shown)
VH: EVQLVESGGGLVQPGGSLRLSCAASGFTFEAYSMNWVRQAPGKGLEWVSYISLSGATIHYADSVKGRFTISRDNAKNSLYLQMNSLRAEDTAVYYCARGGQYYYDSSDYGEVAFDIWGQGTMVTVSS
VL: DIVMTQSPLSLPVTPGEPASISCRSSQSLVSNGYNYLDWYLQKPGQSPQLLIYFGSSRASGVPDRFSGSGSGTDFTLKISRVEAEDVGVYYCMQRRRTPWSFGGGTKVEIK
Kd [1]: 1.42 nM
koff [1]: 0.000192 s⁻¹
kon [1]: 135000 M⁻¹ s⁻¹
Kd [2]: 1.08 nM
koff [2]: 0.000129 s⁻¹
kon [2]: 119000 M⁻¹ s⁻¹

B3: Antibody 5 (Ab5) (antibody, V domains shown)
VH: B1 VH with D105T
VL: B1 VL with N32S
Kd [1]: 1.71 nM
koff [1]: 0.000193 s⁻¹
kon [1]: 113000 M⁻¹ s⁻¹
Kd [2]: 1.4 nM
koff [2]: 0.000164 s⁻¹
kon [2]: 117000 M⁻¹ s⁻¹

B4: Antibody 3 (Ab3) (antibody, V domains shown)
VH: B1 VH with E1Q, Q13K, E30G, A31G, L53I, H59T
VL: DIVMTQSPLSLPVTPGEPASISCRSSQSLVSNGYNYLDWYLQKPGQSPQLLIYFGSSRASGVPDRFSGSGSGTDFTLKISRVEAEDVGVYYCMQRRRTPPFTFGGGTKVEIK
Kd [1]: 1.65 nM
koff [1]: 0.000222 s⁻¹
kon [1]: 135000 M⁻¹ s⁻¹
Kd [2]: 1.61 nM
koff [2]: 0.000192 s⁻¹
kon [2]: 120000 M⁻¹ s⁻¹

B6: Antibody 4 (Ab4) (antibody, V domains shown)
VH: B1 VH with D105T
VL: B1 VL
Kd [1]: 0.867 nM
koff [1]: 0.000102 s⁻¹
kon [1]: 118000 M⁻¹ s⁻¹
Kd [2]: 0.721 nM
koff [2]: 7.89e-05 s⁻¹
kon [2]: 110000 M⁻¹ s⁻¹

More lines, now with the values ahead:

Kd [1]: 4.39 nM
koff [1]: 0.000544 s⁻¹
kon [1]: 124000 M⁻¹ s⁻¹
Kd [2]: 4.24 nM
koff [2]: 0.000537 s⁻¹
kon [2]: 127000 M⁻¹ s⁻¹
B2: Antibody 7 (Ab7) (antibody, V domains shown)
VH: B1 VH with E1Q, Q13K, E30G, A31G, L53I, H59T
VL: B4 VL with N32S

Kd [1]: 1.44 nM
koff [1]: 0.000175 s⁻¹
kon [1]: 122000 M⁻¹ s⁻¹
Kd [2]: 1.3 nM
koff [2]: 0.000154 s⁻¹
kon [2]: 118000 M⁻¹ s⁻¹
B5: Antibody 6 (Ab6) (antibody, V domains shown)
VH: B1 VH with D105T, M122L
VL: B1 VL with M4L, N32S

fold improved affinity over the parent clone C [3]: > 4 fold
Kd [4]: 25.3 nM
koff [4]: 0.000282 s⁻¹
kon [4]: 11100 M⁻¹ s⁻¹
B7: Antibody C (AbC) (antibody, IgG1, V domains shown)
VH: EVQLVESGGGLVQPGGSLRLSCAASGFTFNNYWMTWVRQAPGKGLEWVSSISSSGGSIYYPDSVKDRFTISRDNAKNSLYLQMNSLRAEDMAVYYCARLYYYDGGGDAWGQGTLVTVSS
VL: GIQMTQSPSSLSASVGDRVTITCKASQDINKYLDWYQQKPGKAPKLLIYNTNNLHTGIPSRFSGSGSGTDYTLTISSLQPEDFATYYCLQHISRWTFGGGTKVEIK

Kd [4]: 51.5 nM
koff [4]: 0.00042 s⁻¹
kon [4]: 8160 M⁻¹ s⁻¹
B8: Antibody B (AbB) (antibody, IgG1, V domains shown)
VH: EVQLVESGGGLVQPGGSLRLSCAASGFTFTNFWMAWIRQAPGKGLEWVASISSSGGSIYYPDSVKDRFTISRDNSKNTLYLQMNSLRAEDTAVYYCVKFHHYSGGGDAWGQGTLVTVSS
VL: B7 VL with G1D, D28N, Y49H, N50Y, I92S

Kd [4]: 34.1 nM
koff [4]: 0.000322 s⁻¹
kon [4]: 9440 M⁻¹ s⁻¹
B9: Antibody A (AbA) (antibody, V domains shown)
VH: EVQLLESGGGLVQPGGSLRLSCAASGFTFNNYWMTWVRQAPGKGLEWVSSISSSGGSIYYPDRVKGRFTISRDNSKNTLYLQMNSLRAEDTAVYYCARDERWAGAMDAWGQGTTVTVSS
VL: DIQMTQSPSSLSASVGDRVTITCKASQNINKNLDWYQQKPGKAPKLLIYETNNLQTGVPSRFSGSGSGTDFTLTISSLQPEDFATYYCYQHNSRFTFGQGTKLEIK
